The results in this text go back to US5622930A, “C1 inhibitor muteins and uses thereof” (CLB, priority 1991, dated 1997).

B1: P3-arg: C1 inhibitor mutein with Arg substituted for Val at position 442 (P3) (protein, UniProt P05155 23-500, looked up, variant V442R)
Plasma protease C1 inhibitor: NPNATSSSSQDPESLQDRGEGKVATTVISKMLFVEPILEVSSLPTTNSTTNSATKITANTTDEPTTQPTTEPTTQPTIQPTQPTTQLPTDSPTQPTTGSFCPGPVTLCSDLESHSTEAVLGDALVDFSLKLYHAFSAMKKVETNMAFSPFSIASLLTQVLLGAGENTKTNLESILSYPKDFTCVHQALKGFTTKGVTSVSQIFHSPDLAIRDTFVNASRTLYSSSPRVLSNNSDANLELINTWVAKNTNNKISRLLDSLPSDTRLVLLNAIYLSAKWKTTFDPKKTRMEPFHFKNSVIKVPMMNSKKYPVAHFIDQTLKAKVGQLQLSHNLSLVILVPQNLKHRLEDMEQALSPSVFKAIMEKLEMSKFQPTLLTLPRIKVTTSQDMLSIMEKLEFFDFSYDLNLCGLTEDPDLQVSAMQHQTVLELTETGVEAAAASAISRARTLLVFEVQQPFLFVLWDQQHKFPVFMGRVYDPRA
B2: P3-leu: C1 inhibitor mutein with Leu substituted for Val at position 442 (P3) (protein, UniProt P05155 23-500, looked up, variant V442L)
Plasma protease C1 inhibitor: B1 Plasma protease C1 inhibitor with R442L
B3: P3-gly: C1 inhibitor mutein with Gly substituted for Val at position 442 (P3) (protein, UniProt P05155 23-500, looked up, variant V442G)
Plasma protease C1 inhibitor: B1 Plasma protease C1 inhibitor with R442G
B4: P3-thr: C1 inhibitor mutein with Thr substituted for Val at position 442 (P3) (protein, UniProt P05155 23-500, looked up, variant V442T)
Plasma protease C1 inhibitor: B1 Plasma protease C1 inhibitor with R442T
B5: P3-ala: C1 inhibitor mutein with Ala substituted for Val at position 442 (P3) (protein, UniProt P05155 23-500, looked up, variant V442A)
Plasma protease C1 inhibitor: B1 Plasma protease C1 inhibitor with R442A
B6: wild-type: wild type C1 inhibitor, plasma glycoprotein serine protease inhibitor with isoleucine and valine at positions 440 and 442 (protein, UniProt P05155 23-500, looked up)
Plasma protease C1 inhibitor: B1 Plasma protease C1 inhibitor with R442V
B7: P5 -leu:P3 -ala: C1 inhibitor mutein with Leu at position 440 (P5) and Ala at position 442 (P3) (protein, UniProt P05155 23-500, looked up, variant I440L V442A)
Plasma protease C1 inhibitor: B1 Plasma protease C1 inhibitor with I440L, R442A
B8: P5 -leu:P3 -leu: C1 inhibitor mutein with Leu at position 440 (P5) and Leu at position 442 (P3) (protein, UniProt P05155 23-500, looked up, variant I440L V442L)
Plasma protease C1 inhibitor: B1 Plasma protease C1 inhibitor with I440L, R442L

Changes are numbered by the printed parent chain.

In one assay the test system is C1s. The assay can be described thus: radioimmune assay of complex formation of C1 inhibitor muteins with solid phase C1s. The assay is classed as binding. The note with it: muteins altered only at P3 (position 442, substituted for Val), FIG. 3. An excerpt:
(§1) FIG. 2 presents a generalized assay screening format for determining both the inhibitory (complex formation) or protease sensitivity (inactivation) of the C1 muteins. The latter measures inactivation of the C1 inhibitor muteins by non-target proteases. This procedure is also described by Eldering et al., 1988, in J. of Biological Chem., 263: 11776. Modifications of these methods are also known in the art.
Generally, inhibitor activity of C1 muteins may be determined by measuring complex formation between the C1 inhibitor and a substrate. The preferred substrates are, of course, C1s, Kallikrein, B-12a, and plasmin. The C1 inhibitor, or C1 inhibitor muteins, inhibit the protease activity of the substrate by forming a covalent bond with the substrate. These molecules were purified by techniques known in the art, or as described by Liebermann, H., etal., 1984, J. Mol. Biol., 177: 531 and Nuijens, J.,et al., 1987, Immunology, 61: 387.
The preferred assay is a radioimmune assay based on the observation that functional C1 inhibitor muteins bind to activated target substrate, such as C1s. The assay can be performed in several ways, but preferably purified activated C1s is coupled to a solid matrix, preferably Sepharose 4B via cyanogen bromide as is known in the art. Coupled C1s is incubated in an appropriately buffered solution containing, if desired, a small amount of detergent, preferably Tween-20. The latter is used at a concentration of about 0.1% (w/v). The capacity of the C1 inhibitor muteins to complex with the target substrate can be detected using anti-C1 inhibitor mutein antibody. Alternatively, a radiolabelled second antibody can be used to detect the bound first antibody. The antibody may be polyclonal or monoclonal and is incubated for a sufficient time to permit detectible binding of the antibody to the C1 inhibitor to occur. After the appropriate washing steps are conducted whereby non-specifically bound radiolabelled antibody is separated from antibody bound to C1 inhibitor muteins, the amount of radioactivity associated with the latter is determined. In this way, and incorporating the appropriate controls in the assay scheme, the inhibitory capacity of the C1 muteins is determined.
The general procedures for determining both the inhibitory or non-target protease sensitivity of the C1 inhibitor muteins are shown in FIG. 2. The procedures involving C1s will be described briefly, the procedures for the other substrates is similar with modifications as noted by Eldering, 1988, J. Biological Chem., 263: 11776, and as shown by Nuijens et al., above.
As mentioned above, the radioimmune assay to determine the C1 inhibitor activity of the various muteins is based on the observation that functional C1 inhibitor mutein will bind to activated C1s. Thus, purified activated C1s is coupled to CNBr Sepharose 4B and suspended in phosphate-buffered saline, pH 7.4 10 mM EDTA, and 0.1% (w/v) Tween-20. Next, 0.3 ml of this mixture containing 1.5 μg of activated C1s is incubated with various dilutions of the C1 inhibitor muteins for 5 hours. The Sepharose 4B beads are collected, extensively washed, and complexed C1 inhibitor mutein incubated (>4hours) with ^125 I-polyclonal anti-C1 antibody. The antibody is described by Hack, et al., above. The Sepharose beads are washed, and bound radioactivity determined using a LKB 1260 multigamma II gamma counter.
Take B1: the “complex formation (inhibitory activity), order among P3 muteins” value is “Arg=Gly<Ala<Leu<wild-type=Thr”.
In the case of B2, the “complex formation (inhibitory activity), order among P3 muteins” value is listed as “Arg=Gly<Ala<Leu<wild-type=Thr”.
Same read-out and setting: to B3 belongs “Arg=Gly<Ala<Leu<wild-type=Thr”; to B4, “Arg=Gly<Ala<Leu<wild-type=Thr”.
On the same count and under the same terms, in the case of B5 it was “Arg=Gly<Ala<Leu<wild-type=Thr”; in that of B6, “Arg=Gly<Ala<Leu<wild-type=Thr”.

The test system of a further assay is HNE. The assay is described as follows: inactivation of C1 inhibitor muteins by elastase (protease sensitivity). The assay is classed as biochemical. The note with it: neutrophil elastase as the source of protease; compared to wild type C1 inhibitor.
Excerpt: as §1
Using similar approaches, the non-target protease sensitivity of the C1 inhibitor muteins may be determined. Numerous assays may be employed that measure the amount of intact C1 inhibitor mutein, or fragments that are derived from the muteins, remaining after exposure to protease. […] A solid phase assay is preferred whereby C1 inhibitor muteins are reacted with non-target protease bound to a solid matrix and the amount of proteolysis of the muteins measured by determining the amount of intact mutein remaining, or preferably by detecting fragments of the mutein.
An exemplary non-target protease that cleaves C1 is neutrophil elastase. Thus, this enzyme may be coupled to CNBr treated Sepharose 4B, and incubated with a C1 inhibitor mutein, and the presence of proteolytically cleaved C1 mutein monitored using a number of techniques. […] Subsequently, the amount of bound cleaved C1 inhibitor can be determined using a second radiolabelled antibody that recognizes the cleaved molecule. […]
For B7, the susceptibility to inactivation entry is given as “significantly reduced susceptibility to inactivation”.
In the case of B8, the susceptibility to inactivation result is “significantly reduced susceptibility to inactivation”.
